The values below come from the supplement of paper PMC10567573.

B1: ESRRG (parent)
chain: YSCPATNECEITKRRRKSCQACRF
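Also: lentivirally expressed fusions sorted by FACS into six bins by GFP to DsRed ratio, PSI derived from sequencing read proportions per bin multiplied by bin number.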

In the data set the parent is B1. Kind of data set: protein stability index of a GFP-peptide fusion (GPS, HEK-293T) (PSI 1-6); higher = more stable. As to conditions: c terminus: a fixed tail appended.
For YSCPATNECEITKRRRKSCQACRD [F24D], the protein stability index stood at 4.07.

In the case of YSCPATNECEITKRRRKSCQACRR [F24R], the protein stability index was 3.41. For the variant YSCPATNECEITKRRRKSCQACRV [F24V], the protein stability index was 4. For YSCPATNECEITKRRRKSCQACRA [F24A], the protein stability index stood at 4.

As for YSCPATNECEITKRRRKSCQACRW [F24W], the protein stability index came to 2.88. For YSCPATNECEITKRRRKSCQACRK [F24K], the protein stability index turned out to be 4.41.

With YSCPATNECEITKRRRKSCQACRL [F24L], the protein stability index worked out at 3.61. For the variant YSCPATNECEITKRRRKSCQACRN [F24N], the protein stability index stood at 4.28. In the case of YSCPATNECEITKRRRKSCQACRM [F24M], the protein stability index was 3.89. Under YSCPATNECEITKRRRKSCQACRE [F24E] stands 4.19. With YSCPATNECEITKRRRKSCQACRC [F24C], the protein stability index amounted to 3.62. Under YSCPATNECEITKRRRKSCQACRI [F24I] stands 3.67; under YSCPATNECEITKRRRKSCQACRP [F24P], 3.51; under YSCPATNECEITKRRRKSCQACRG [F24G], 4.18.

In the case of YSCPATNECEITKRRRKSCQACRQ [F24Q], the protein stability index came out at 3.7. In the case of YSCPATNECEITKRRRKSCQACRT [F24T], the protein stability index came out at 4.12. In the case of YSCPATNECEITKRRRKSCQACRS [F24S] it was 3.89; in that of YSCPATNECEITKRRRKSCQACRY [F24Y], 3.53; in that of YSCPATNECEITKRRRKSCQACRH [F24H], 4.18. For the variant YSCPATNECEITKRRRKSVQACRF [C19V], the protein stability index came to 3.27. Under YSCPATNECEITKRRRKSYQACRF [C19Y] stands 3.44; under YSCPATNECEITKRRRKSRQACRF [C19R], 3.72. On to YSCPATNECEITKRRRKSSQACRF [C19S], for which the protein stability index came out at 3.54.

With YSCPATNECEITKRRRKSWQACRF [C19W], the protein stability index came to 3.15. In the case of YSCPATNECEITKRRRKSTQACRF [C19T], the protein stability index is 3.85.

In the case of YSCPATNECEITKRRRKSCKACRF [Q20K], the protein stability index was 3.92. In the case of YSCPATNECEITKRRRKSCDACRF [Q20D] it was 3.7; in that of YSCPATNECEITKRRRKSCEACRF [Q20E], 3.62. In the case of YSCPATNECEITKRRRKSCMACRF [Q20M] it was 2.86; in that of YSCPATNECEITKRRRKSCAACRF [Q20A], 3.52; in that of YSCPATNECEITKRRRKSCIACRF [Q20I], 2.2.

As for YSCPATNECEITKRRRKSCNACRF [Q20N], the protein stability index came to 3.52.

YSCPATNECEITKRRRKSCSACRF [Q20S]: the protein stability index turned out to be 3.02.

As for YSCPATNECEITKRRRKSCTACRF [Q20T], the protein stability index came to 2.93.

In the case of YSCPATNECEITKRRRKSCHACRF [Q20H], the protein stability index was determined as 2.67. In the case of YSCPATNECEITKRRRKSCRACRF [Q20R] it was 3.49. In the case of YSCPATNECEITKRRRKSCFACRF [Q20F] it was 1.91; in that of YSCPATNECEITKRRRKSCWACRF [Q20W], 2.21. Consider YSCPATNECEITKRRRKSCLACRF [Q20L], for which the protein stability index stood at 2.53. Under YSCPATNECEITKRRRKSCYACRF [Q20Y] stands 2.81.

Regarding YSCPATNECEITKRRRKSCGACRF [Q20G], the protein stability index came out at 3.53. On to YSCPATNECEITKRRRKSCVACRF [Q20V], for which the protein stability index was found to be 2.78.

Regarding YSCPATNECEITKRRRKSCPACRF [Q20P], the protein stability index came out at 3.39. With YSCPATNECEITKRRRKSCCACRF [Q20C], the protein stability index is 2.67. In the case of YSCPATNECEITKRRRKSCQACIF [R23I] it was 2.59. In the case of YSCPATNECEITKRRRKSCQACAF [R23A] it was 3.1.

For YSCPATNECEITKRRRKSCQACQF [R23Q], the protein stability index was determined as 3.69.

Turning to YSCPATNECEITKRRRKSCQACEF [R23E], the protein stability index turned out to be 4.02.

Turning to YSCPATNECEITKRRRKSCQACGF [R23G], the protein stability index was 3.79. Consider YSCPATNECEITKRRRKSCQACYF [R23Y], for which the protein stability index was determined as 3.3. With YSCPATNECEITKRRRKSCQACDF [R23D], the protein stability index was 3.88.

Turning to YSCPATNECEITKRRRKSCQACTF [R23T], the protein stability index is 3.01. In the case of YSCPATNECEITKRRRKSCQACMF [R23M], the protein stability index was 3.04. As to YSCPATNECEITKRRRKSCQACFF [R23F], the protein stability index amounted to 2.33. As to YSCPATNECEITKRRRKSCQACSF [R23S], the protein stability index was found to be 3.22. YSCPATNECEITKRRRKSCQACLF [R23L]: the protein stability index amounted to 2.73.

With YSCPATNECEITKRRRKSCQACVF [R23V], the protein stability index amounted to 2.46. Under YSCPATNECEITKRRRKSCQACHF [R23H] stands 2.96; under YSCPATNECEITKRRRKSCQACNF [R23N], 3.92. Under YSCPATNECEITKRRRKSCQACPF [R23P] stands 3.7. Under YSCPATNECEITKRRRKSCQACCF [R23C] stands 3.71; under YSCPATNECEITKRRRKSCQACWF [R23W], 2.09; under YSCPATNECEITKRRRKSCQACKF [R23K], 3.33. For the variant YSCPATNECEITKRRRKSCQSCRF [A21S], the protein stability index turned out to be 3.23. In the case of YSCPATNECEITKRRRKSCQVCRF [A21V] it was 3.2.

For YSCPATNECEITKRRRKSCQGCRF [A21G], the protein stability index amounted to 3.44. Under YSCPATNECEITKRRRKSCQMCRF [A21M] stands 2.46; under YSCPATNECEITKRRRKSCQYCRF [A21Y], 3.16. In the case of YSCPATNECEITKRRRKSCQLCRF [A21L] it was 2.31; in that of YSCPATNECEITKRRRKSCQWCRF [A21W], 2.55; in that of YSCPATNECEITKRRRKSCQTCRF [A21T], 3.47. In the case of YSCPATNECEITKRRRKSCQICRF [A21I] it was 2.54; in that of YSCPATNECEITKRRRKSCQNCRF [A21N], 3.41. On to YSCPATNECEITKRRRKSCQQCRF [A21Q], for which the protein stability index came out at 3.29. In the case of YSCPATNECEITKRRRKSCQPCRF [A21P] it was 3.29; in that of YSCPATNECEITKRRRKSCQHCRF [A21H], 4.06; in that of YSCPATNECEITKRRRKSCQFCRF [A21F], 2.94. Under YSCPATNECEITKRRRKSCQCCRF [A21C] stands 3.66; under YSCPATNECEITKRRRKSCQRCRF [A21R], 3.49; under YSCPATNECEITKRRRKSCQECRF [A21E], 3.43. In the case of YSCPATNECEITKRRRKSCQDCRF [A21D], the protein stability index was found to be 3.49. Under YSCPATNECEITKRRRKSCQKCRF [A21K] stands 3.63. Regarding YSCPATNECEITKRRRKSCQAMRF [C22M], the protein stability index is 2.9. Under YSCPATNECEITKRRRKSCQASRF [C22S] stands 3.9.

In the case of YSCPATNECEITKRRRKSCQALRF [C22L], the protein stability index came out at 3.71.

For the variant YSCPATNECEITKRRRKSCQAHRF [C22H], the protein stability index was 3.5. Regarding YSCPATNECEITKRRRKSCQAVRF [C22V], the protein stability index is 3.66. In the case of YSCPATNECEITKRRRKSCQAWRF [C22W], the protein stability index stood at 2.94. Under YSCPATNECEITKRRRKSCQADRF [C22D] stands 4.07.

Regarding YSCPATNECEITKRRRKSCQAQRF [C22Q], the protein stability index was 3.67.

On to YSCPATNECEITKRRRKSCQARRF [C22R], for which the protein stability index amounted to 3.87. With YSCPATNECEITKRRRKSCQAYRF [C22Y], the protein stability index was found to be 3.01. Consider YSCPATNECEITKRRRKSCQAERF [C22E], for which the protein stability index is 3.49. As for YSCPATNECEITKRRRKSCQAIRF [C22I], the protein stability index was found to be 3.42. Take YSCPATNECEITKRRRKSCQAARF [C22A]: the protein stability index is 3.47.

With YSCPATNECEITKRRRKSCQANRF [C22N], the protein stability index is 4.09.

For YSCPATNECEITKRRRKSCQAKRF [C22K], the protein stability index amounted to 3.97. Under YSCPATNECEITKRRRKSCQAFRF [C22F] stands 2.81. Under YSCPATNECEITKRRRKSCQAPRF [C22P] stands 3.86; under YSCPATNECEITKRRRKSCQAGRF [C22G], 3.38; under YSCPATNECEITKRRRKSCQATRF [C22T], 3.58.
